These results are taken from the supplement of paper PMC7877785.

The data set can be described thus: self-splicing fitness, log relative to wild type (ln ratio); higher = more splicing; Tetrahymena group I intron in knt gene, E. coli kanamycin selection, DiMSum; sequences stand for … in CUCUCU…GGAGGGAAAAGUUAUCAGGCAUGCACCUGGUAGCUAGUCUUUAAACCAAUAGAUUGCAUCGGUUUAAAAGGCAAGACCGUCAAAUUGCGGGAAAGGGGUCAACAGCCGUUCAGUACCAAGUCUCAGGGGAAACUUUGAGAUGGCCUUGCAAAGGGUAUGGUAAUAAGCUGACGGACAUGGUCCUAACCACGCAGCCAAGUCCUAAGUCAACAGAUCUUCUGUUGAUAUGGAUGCAGUUCACAGACUAAAUGUCGGUCGGGGAAGAUGUAUUCUUCUCAUAAGAUAUAGUCGGACCUCUCCUUAAUGGGAGCUAGCGGAUGAAGUGAUGCAACACUGGAGCCGCUGGGAACUAAUUUGUAUGCGAAAGUAUAUUGAUUAGUUUUGGAGUACUCGUGGUCG
The method in brief: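 Six replicate transformations of E. coli BL21(DE3) with a pET-22b(+) library were grown overnight at 37°C or 30°C. The library randomised all eight P1ex-region intron nucleotides, the intron lying in the knt kanamycin-resistance gene, and plates were LB agar with or without 25 μg/mL kanamycin plus 100 μg/mL carbenicillin, 50 μM IPTG and 0.2% rhamnose. Pooled colonies were amplicon-sequenced on an Illumina HiSeq 2500, and fitness is the DiMSum error-weighted combination of wild-type-normalised replicate fold changes, kanamycin versus none.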

± gives the uncertainty stated by the source.

As for AGUUAGCAAUAUUACGAUGU, the “self-splicing fitness (ln)” value (30 °C) was -1.48 ± 0.096 and the “self-splicing fitness (ln)” value (37 °C) was -0.307 ± 0.11.

For AUCAAGCAAUAUUACGUAAU, the “self-splicing fitness (ln)” value was -1.1 ± 0.056 (30 °C) and -0.247 ± 0.081 (37 °C).

Regarding UUGGAGCAAUAUUACGUGAA, the “self-splicing fitness (ln)” value is -2.62 ± 0.21 (30 °C) and -1.27 ± 0.2 (37 °C).

As for UGCAAGCAAUAUUACGUCCG, the “self-splicing fitness (ln)” value by setting is: (30 °C) 0.463 ± 0.1; (37 °C) 0.55 ± 0.12.

Consider GGGCAGCAAUAUUACGCUAG, for which the “self-splicing fitness (ln)” value reads like this: (30 °C) -1.86 ± 0.078; (37 °C) -0.741 ± 0.11.

Take GGUUAGCAAUAUUACGUAAU: the “self-splicing fitness (ln)” value (30 °C) is -2.05 ± 0.22 and the “self-splicing fitness (ln)” value (37 °C) is -0.725 ± 0.21.

For CGUAAGCAAUAUUACGGCAC, the “self-splicing fitness (ln)” value runs as follows: (30 °C) -3.68 ± 0.29; (37 °C) -0.595 ± 0.22.

Regarding AGAUAGCAAUAUUACGGCCA, the “self-splicing fitness (ln)” value (30 °C) came out at 0.117 ± 0.33 and the “self-splicing fitness (ln)” value (37 °C) is -0.323 ± 0.26.

With GCACAGCAAUAUUACGACGG, the “self-splicing fitness (ln)” value is, setting by setting: (30 °C) -1.34 ± 0.098; (37 °C) -0.832 ± 0.13.

Take GGGAAGCAAUAUUACGGCUA: the “self-splicing fitness (ln)” value is -0.707 ± 0.089 (30 °C) and 0.0151 ± 0.12 (37 °C).

Turning to GAAUAGCAAUAUUACGACUG, the “self-splicing fitness (ln)” value (30 °C) stood at 0.089 ± 0.15 and the “self-splicing fitness (ln)” value (37 °C) is -1.43 ± 0.17.

For AUCCAGCAAUAUUACGUUUU, the “self-splicing fitness (ln)” value (30 °C) is -2.04 ± 0.083 and the “self-splicing fitness (ln)” value (37 °C) was -1.15 ± 0.11.

As to CGCUAGCAAUAUUACGUCUA, the “self-splicing fitness (ln)” value is, setting by setting: (30 °C) -2.47 ± 0.22; (37 °C) -1.59 ± 0.34.

With CCAGAGCAAUAUUACGAGUC, the “self-splicing fitness (ln)” value by setting is: (30 °C) -2 ± 0.19; (37 °C) -1.69 ± 0.28.

With UAAUAGCAAUAUUACGAAAG, the “self-splicing fitness (ln)” value runs as follows: (30 °C) -1.92 ± 0.19; (37 °C) -2.03 ± 0.31.

As for GCGGAGCAAUAUUACGGCAU, the “self-splicing fitness (ln)” value (30 °C) is -1.88 ± 0.12 and the “self-splicing fitness (ln)” value (37 °C) is -0.979 ± 0.13.

With AUACAGCAAUAUUACGUUCU, the “self-splicing fitness (ln)” value was 0.212 ± 0.1 (30 °C) and -0.221 ± 0.12 (37 °C).

On to AGAAAGCAAUAUUACGGCGG, for which the “self-splicing fitness (ln)” value (30 °C) is -0.593 ± 0.1 and the “self-splicing fitness (ln)” value (37 °C) was -0.586 ± 0.14.

For the sequence CAUCAGCAAUAUUACGGCUU, the “self-splicing fitness (ln)” value runs as follows: (30 °C) -2.91 ± 0.14; (37 °C) -1.75 ± 0.17.

Turning to UUGGAGCAAUAUUACGGGCA, the “self-splicing fitness (ln)” value (37 °C) is -1.45 ± 0.35.

For GGACAGCAAUAUUACGUUGA, the “self-splicing fitness (ln)” value by setting is: (30 °C) -0.48 ± 0.07; (37 °C) 0.279 ± 0.098.

With GAUCAGCAAUAUUACGACGC, the “self-splicing fitness (ln)” value was -0.169 ± 0.077 (30 °C) and 0.198 ± 0.09 (37 °C).

On to UUCUAGCAAUAUUACGACCA, for which the “self-splicing fitness (ln)” value (30 °C) is -0.559 ± 0.15 and the “self-splicing fitness (ln)” value (37 °C) was -0.269 ± 0.14.

As to CGGGAGCAAUAUUACGGUAG, the “self-splicing fitness (ln)” value runs as follows: (30 °C) -3.73 ± 0.29; (37 °C) -2 ± 0.27.

Regarding CAUGAGCAAUAUUACGUGCU, the “self-splicing fitness (ln)” value (30 °C) is -3.6 ± 0.38 and the “self-splicing fitness (ln)” value (37 °C) is -2.39 ± 0.32.

Turning to CUCAAGCAAUAUUACGGUGC, the “self-splicing fitness (ln)” value is, setting by setting: (30 °C) -4.1 ± 0.31; (37 °C) -3.19 ± 0.27.

As to UACAAGCAAUAUUACGGGGA, the “self-splicing fitness (ln)” value runs as follows: (30 °C) -1.5 ± 0.12; (37 °C) -1.09 ± 0.13.

Turning to AAUCAGCAAUAUUACGUGAC, the “self-splicing fitness (ln)” value (30 °C) is -1.81 ± 0.085 and the “self-splicing fitness (ln)” value (37 °C) is -1.72 ± 0.12.

Turning to AGGAAGCAAUAUUACGAAAC, the “self-splicing fitness (ln)” value (30 °C) was -2.83 ± 0.38.

Turning to UUAUAGCAAUAUUACGGCCG, the “self-splicing fitness (ln)” value runs as follows: (30 °C) -0.763 ± 0.48; (37 °C) -0.565 ± 0.37.

Consider UGUCAGCAAUAUUACGUACG, for which the “self-splicing fitness (ln)” value by setting is: (30 °C) -0.208 ± 0.15; (37 °C) 0.45 ± 0.15.

UAGCAGCAAUAUUACGUCCC: the “self-splicing fitness (ln)” value was -3.06 ± 0.41 (30 °C) and -1.7 ± 0.4 (37 °C).

In the case of UCGCAGCAAUAUUACGCCCA, the “self-splicing fitness (ln)” value by setting is: (30 °C) -0.827 ± 0.19; (37 °C) 0.0722 ± 0.18.

CCUUAGCAAUAUUACGCCCU: the “self-splicing fitness (ln)” value (30 °C) was -1.89 ± 0.48.

On to ACGGAGCAAUAUUACGCUCC, for which the “self-splicing fitness (ln)” value (37 °C) was -1.28 ± 0.37.

On to GGCAAGCAAUAUUACGCCUA, for which the “self-splicing fitness (ln)” value reads like this: (30 °C) -1.04 ± 0.14; (37 °C) -1.19 ± 0.13.

For the sequence CUACAGCAAUAUUACGACUC, the “self-splicing fitness (ln)” value is -4.35 ± 0.22 (30 °C) and -2.7 ± 0.24 (37 °C).

In the case of AUACAGCAAUAUUACGCAAG, the “self-splicing fitness (ln)” value runs as follows: (30 °C) -2.28 ± 0.12; (37 °C) -1.49 ± 0.13.

Regarding CGACAGCAAUAUUACGGAGA, the “self-splicing fitness (ln)” value was -2.18 ± 0.15 (30 °C) and -3.29 ± 0.28 (37 °C).
